# Source: the supplement of paper PMC10724198
# ± gives the standard deviation of the averaged measurements.
# Test system: Saccharomyces cerevisiae
# Test: protein stability index of tFT-peptide fusion (C-terminal peptide) (PSI (0-1 scale)); higher = more stable (slower turnover)
# Settings: genetic background: das1 deletion; temperature: 30 C
# Procedure: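 MPS profiling in S. cerevisiae of the tFT-X12 degron library: putative degron peptides plus stable controls, 12 aa, fused to the C-terminus of a sfGFP-mCherry timer. Cells are FACS-sorted into 8 mCherry/sfGFP bins and deep-sequenced. PSI runs from 0 (unstable) to 1 (stable). Backgrounds are wild type, das1Δ and doa10Δ at 30 °C, and wild type, das1Δ, cdc34-1 and cdc53-1 at 37 °C; 2-3 technical replicates each.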
# 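Note: PSI is a weighted mean of sequencing reads over stability bins, variants kept only with over 10 reads, mCherry proximal and sfGFP distal, peptide attached via GGGS linker.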
row,Sequence,protein stability index
1,TMSGVTRCVLVL,0.385 ± 0.026
2,TNEWMDVKVFCY,0.499 ± 0.049
3,TSFSSGEALGVG,0.442 ± 0.0075
4,TVHVIVVCRELA,0.39 ± 0.03
5,TVRLPLILPCVL,0.421 ± 0.028
6,TVRVWPRNLWFS,0.639 ± 0.021
7,TWGGGRVSLGVG,0.326 ± 0.011
8,TYHRSYLLATVV,0.378 ± 0.028
9,VACTCILVALVV,0.0772 ± 0.027
10,VAFLYCHFFYCI,0.391 ± 0.029
11,VAVFFFCRVFFL,0.221 ± 0.037
12,VCCYILFFLFPV,0.349 ± 0.025
13,VCLRICLVTLMM,0.284 ± 0.032
14,VCPCCPYVMIAG,0.498 ± 0.027
15,VCSCLVLVFCCC,0.232 ± 0.036
16,VCVARICIWDFL,0.446 ± 0.035
17,VCWVYESWKCLA,0.536 ± 0.027
18,VCYLMRSLTFAY,0.345 ± 0.029
19,VECVCVVVVRRM,0.313 ± 0.023
20,VFLCVRLGFIFL,0.359 ± 0.029
21,VFLLCLGFLVFS,0.258 ± 0.025
22,VFLRRFGVPWVF,0.493 ± 0.029
23,VFLSCFFVSWVV,0.226 ± 0.027
24,VFLYVYAVWFLV,0.198 ± 0.042
25,VFSFLYHVVPVL,0.36 ± 0.028
26,VFVMRDGFLRKV,0.636 ± 0.022

row,Sequence,protein stability index
1,VFWISRLYLASY,0.442 ± 0.037
2,VGDFFVLVGFVA,0.386 ± 0.028
3,VGDIRSFALWYA,0.661 ± 0.015
4,VGGGGRFWVCVG,0.629 ± 0.0064
5,VGVSCLVFFGVV,0.511 ± 0.017
6,VIAYSLLSWGDF,0.378 ± 0.04
7,VLDFSVPRHVLH,0.66 ± 0.0056
8,VLFFCLVIYVGV,0.183 ± 0.015
9,VLILFFLVVFYV,0.267 ± 0.033
10,VLLCASPMLAVV,0.289 ± 0.024
11,VLLCGCVWLWWG,0.371 ± 0.038
12,VLLFGLAFFFSF,0.367 ± 0.053
13,VLLGYPRILSLF,0.681 ± 0.0075
14,VLLRSRLLRRLS,0.67 ± 0.048
15,VLRCIWLCFLSV,0.439 ± 0.034
16,VLRLVLFVLISV,0.277 ± 0.03
17,VLSCVWFVVVGV,0.245 ± 0.028
18,VLYWTGTLFVSL,0.218 ± 0.017
19,VPIIVVVYVFVT,0.157 ± 0.03
20,VRFLLSLCCALL,0.548 ± 0.033
21,VRLYLRSCVVES,0.228 ± 0.029
22,VRMVIFSSVYLT,0.362 ± 0.033
23,VRWLVFFLFLFG,0.406 ± 0.023
24,VSCLDLCFVISR,0.503 ± 0.034
25,VSCYYVFLIPFW,0.414 ± 0.038
26,VSFLLYNFLSVF,0.346 ± 0.028

row,Sequence,protein stability index
1,VSFLVSIFVSGV,0.216 ± 0.029
2,VSLLSLGYVFVY,0.212 ± 0.038
3,VSLLVFVVSSRV,0.262 ± 0.031
4,VSPPPLSPPLSR,0.6712 ± 0.0055
5,VTMTPSLCFSYS,0.388 ± 0.029
6,VTRLLLSRIDCY,0.376 ± 0.028
7,VVFLFVEAVVGV,0.0387 ± 0.014
8,VVFVVGAPPVLC,0.359 ± 0.024
9,VVGVVVCWGCGW,0.393 ± 0.024
10,VVPWLGYVSCFS,0.357 ± 0.029
11,VVRAVLCVCASV,0.409 ± 0.028
12,VVRYGGVIAFRG,0.547 ± 0.017
13,VVWCLLARVLLV,0.306 ± 0.036
14,VWICPTLFLLFS,0.369 ± 0.05
15,VYDVSVGVAVVG,0.34 ± 0.037
16,VYKSTHKIYILT,0.53 ± 0.011
17,VYQAFIFRMSLF,0.586 ± 0.019
18,VYRVTGSWLMWV,0.483 ± 0.021
19,VYTVGFVCWLVY,0.208 ± 0.021
20,VYWRGLHLQRLL,0.652 ± 0.033
21,WALWGFVFWDWW,0.377 ± 0.035
22,WCGLFCRSVFVV,0.263 ± 0.033
23,WDEVVAIVVCPV,0.293 ± 0.036
24,WFALFYFLVSAF,0.205 ± 0.036
25,WFCYFSLYVFLL,0.168 ± 0.027
26,WFFRCLFLLSLF,0.517 ± 0.019

# Same assay, conditions: genetic background: das1 deletion; temperature: 37 C
row,Sequence,protein stability index
1,TMSGVTRCVLVL,0.5463 ± 0.0053
2,TNEWMDVKVFCY,0.676 ± 0.0097
3,TSFSSGEALGVG,0.5 ± 0.0091
4,TVHVIVVCRELA,0.52 ± 0.017
5,TVRLPLILPCVL,0.5669 ± 0.0053
6,TVRVWPRNLWFS,0.7273 ± 0.0018
7,TWGGGRVSLGVG,0.405 ± 0.018
8,TYHRSYLLATVV,0.543 ± 0.016
9,VACTCILVALVV,0.198 ± 0.0045
10,VAFLYCHFFYCI,0.53095 ± 0.00027
11,VAVFFFCRVFFL,0.412 ± 0.0042
12,VCCYILFFLFPV,0.568 ± 0.024
13,VCLRICLVTLMM,0.4615 ± 0.0026
14,VCPCCPYVMIAG,0.647 ± 0.0012
15,VCSCLVLVFCCC,0.318 ± 0.0068
16,VCVARICIWDFL,0.594 ± 0.014
17,VCWVYESWKCLA,0.672 ± 0.0075
18,VCYLMRSLTFAY,0.494 ± 0.0096
19,VECVCVVVVRRM,0.493 ± 0.01
20,VFLCVRLGFIFL,0.529 ± 0.012
21,VFLLCLGFLVFS,0.4083 ± 0.0018
22,VFLRRFGVPWVF,0.661 ± 0.016
23,VFLSCFFVSWVV,0.40329 ± 5.2e-05
24,VFLYVYAVWFLV,0.321 ± 0.0075
25,VFSFLYHVVPVL,0.505 ± 0.01
26,VFVMRDGFLRKV,0.748 ± 0.025

row,Sequence,protein stability index
1,VFWISRLYLASY,0.588 ± 0.012
2,VGDFFVLVGFVA,0.547 ± 0.0057
3,VGDIRSFALWYA,0.74 ± 0.0047
4,VGGGGRFWVCVG,0.737 ± 0.011
5,VGVSCLVFFGVV,0.6636 ± 0.0025
6,VIAYSLLSWGDF,0.319 ± 0.023
7,VLDFSVPRHVLH,0.7364 ± 0.0016
8,VLFFCLVIYVGV,0.29 ± 0.035
9,VLILFFLVVFYV,0.347 ± 0.018
10,VLLCASPMLAVV,0.423 ± 0.0087
11,VLLCGCVWLWWG,0.5248 ± 0.004
12,VLLFGLAFFFSF,0.537 ± 0.036
13,VLLGYPRILSLF,0.8122 ± 0.0047
14,VLLRSRLLRRLS,0.72 ± 0.033
15,VLRCIWLCFLSV,0.607 ± 0.032
16,VLRLVLFVLISV,0.387 ± 0.016
17,VLSCVWFVVVGV,0.441 ± 0.019
18,VLYWTGTLFVSL,0.426 ± 0.0064
19,VPIIVVVYVFVT,0.306 ± 0.024
20,VRFLLSLCCALL,0.624 ± 0.042
21,VRLYLRSCVVES,0.437 ± 0.0094
22,VRMVIFSSVYLT,0.533 ± 0.0036
23,VRWLVFFLFLFG,0.555 ± 0.0072
24,VSCLDLCFVISR,0.66874 ± 0.00016
25,VSCYYVFLIPFW,0.57839 ± 0.00033
26,VSFLLYNFLSVF,0.4643 ± 0.0021

row,Sequence,protein stability index
1,VSFLVSIFVSGV,0.372 ± 0.0078
2,VSLLSLGYVFVY,0.3467 ± 0.00073
3,VSLLVFVVSSRV,0.476 ± 0.016
4,VSPPPLSPPLSR,0.709 ± 0.012
5,VTMTPSLCFSYS,0.668 ± 0.013
6,VTRLLLSRIDCY,0.501 ± 0.016
7,VVFLFVEAVVGV,0.0974 ± 0.015
8,VVFVVGAPPVLC,0.532 ± 0.013
9,VVGVVVCWGCGW,0.587 ± 0.0062
10,VVPWLGYVSCFS,0.521 ± 0.0067
11,VVRAVLCVCASV,0.518 ± 0.0019
12,VVRYGGVIAFRG,0.725 ± 0.029
13,VVWCLLARVLLV,0.46657 ± 0.00033
14,VWICPTLFLLFS,0.544 ± 0.013
15,VYDVSVGVAVVG,0.5196 ± 0.0031
16,VYKSTHKIYILT,0.6774 ± 0.0066
17,VYQAFIFRMSLF,0.695 ± 0.016
18,VYRVTGSWLMWV,0.527 ± 0.0078
19,VYTVGFVCWLVY,0.3458 ± 0.0024
20,VYWRGLHLQRLL,0.775 ± 0.024
21,WALWGFVFWDWW,0.5133 ± 0.0029
22,WCGLFCRSVFVV,0.406 ± 0.0015
23,WDEVVAIVVCPV,0.493 ± 0.012
24,WFALFYFLVSAF,0.316 ± 0.0074
25,WFCYFSLYVFLL,0.24 ± 0.0052
26,WFFRCLFLLSLF,0.601 ± 0.011
